Target: CD36 (human) (UniProt P16671)
Assay: cell-based or functional assay

Sequence of CD36 (human) (P16671 2-472): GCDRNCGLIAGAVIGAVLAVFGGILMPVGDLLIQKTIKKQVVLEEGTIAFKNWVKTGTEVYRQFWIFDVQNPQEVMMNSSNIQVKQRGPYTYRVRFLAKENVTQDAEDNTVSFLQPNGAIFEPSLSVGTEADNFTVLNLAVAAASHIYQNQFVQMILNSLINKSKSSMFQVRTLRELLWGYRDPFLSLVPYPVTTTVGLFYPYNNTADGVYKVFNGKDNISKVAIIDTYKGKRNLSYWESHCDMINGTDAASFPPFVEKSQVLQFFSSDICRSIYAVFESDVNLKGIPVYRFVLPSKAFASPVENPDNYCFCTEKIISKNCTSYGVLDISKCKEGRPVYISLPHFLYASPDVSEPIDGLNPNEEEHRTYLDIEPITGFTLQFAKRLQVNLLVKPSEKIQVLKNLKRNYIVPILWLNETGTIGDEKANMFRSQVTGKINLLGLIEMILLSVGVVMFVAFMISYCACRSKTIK

total cell number (Wst-1 assay) of patient-derived ovarian cancer cell lines treated with rhTsp-1 for up to 72 hours: < 50%
Substance: recombinant human Tsp-1 (from UniProt P07996 19-1170) (ligand)
